From patent US20030032157A1, “Polypeptides interactive with Bcl-XL” (priority 2001, published 2003) come the findings set out here.

The labels stand for the following.
B1: SEQ ID NO 46 (peptide)
chain: AAMLLDRRGTECDLWINEMSLLHKIVQDVYGTPHPPHS
notes: mRNA display clone from a hypothetical or unknown polypeptide
B2: SEQ ID NO 57 (peptide)
chain: RPVSFCGAVWTLNRAIGRHFVRGSR
B3: SEQ ID NO 48 (peptide)
chain: LFSVLLRYLADNFLPGGS
notes: as for B1
B4: SEQ ID NO 27 (peptide)
chain: LRLNTTVWPTIITPILLTLFLITNRLITTR
notes: mRNA display clone from a known polypeptide
B5: SEQ ID NO 62 (peptide)
chain: QRRGNEFQLRDLADAWDLSSRSRQRGWQMPNCRSRRGPG
B6: transforming growth factor cluster polypeptide (peptide)
chain: FVRSVGWRLQNIGDDMDHAICGHDVRLG
notes: Selected clone with insert in reversed orientation relative to the parent mRNA; not further characterized
B7: SEQ ID NO 14 (peptide)
chain: TGTGAPRFIKEVQELNSALHQSDLIDIYRTLHP
notes: as for B4
B8: SEQ ID NO 36 (peptide)
chain: ILTSPWTTSSGLWPRLQKAAEAFKQLNQP
notes: as for B1
B9: clone w75 (peptide)
chain: RTLQPRLLQNQQQHLPALPIWFLLQWLRLHPL
notes: as for B1
B10: MYBPC3 cluster polypeptide (peptide)
chain: EANRKQPKPNNSSTAYYNFTGVSILPSYKP
notes: Selected clone derived from the 3' UTR of the parent mRNA; not further characterized
B11: SEQ ID NO 52 (peptide)
chain: ASMAPVGRDAETLQKQKETIKAFLKKLEALMASNDNANKT
B12: UDP glucoronosyl transferase 2B4 precursor cluster polypeptide (peptide)
chain: VSCWPSYLKYPLSTASASLLATQLKSIA
notes: Selected clone translated from the incorrect reading frame; not further characterized
B13: SEQ ID NO 21 (peptide)
chain: WERIEERLAYIADHLGFSWTELARAL
notes: as for B4
B14: SEQ ID NO 16 (peptide)
chain: TYWNLLPPKRPIKEVLTDIFAKVLEKGWVDSRS
notes: as for B4
B15: SEQ ID NO 39 (peptide)
chain: GLAKKSKRNPANLTPP
notes: as for B1
B16: SEQ ID NO 47 (peptide)
chain: PWQYKPIADLYRGRESRPSAPR
notes: as for B1
B17: SEQ ID NO 60 (peptide)
chain: IAQATKATIDKWNCIKLKIFYTSKKEAS
B18: SEQ ID NO 22 (peptide)
chain: ARGDFAQAAQQLWLALRALGRPLPTSH
notes: as for B4
B19: SEQ ID NO 53 (peptide)
chain: CREQAELTGLRLASLGLKFNKIVHSSMTRAIET
B20: arsenate resistance protein cluster polypeptide (peptide)
chain: AGTQPLILAQFMRVGGDELLHFLLW
notes: as for B6
B21: SEQ ID NO 56 (peptide)
chain: EDLESVLIRLINWAKGSPIP
B22: cDNA FLJ20617 cluster polypeptide (peptide)
chain: GSLTHHINNIKPSSTR
notes: as for B12
B23: SEQ ID NO 51 (peptide)
chain: VHNFGRHWGLPLSFLLNYPLFLSP
B24: SEQ ID NO 13 (peptide)
chain: RGAVFSQDKDVVQEATKVLRNAADNFYINDR
notes: as for B4
B25: SEQ ID NO 49 (peptide)
chain: DWQVLLGKLLWKIDNPGI
notes: as for B1
B26: SEQ ID NO 26 (peptide)
chain: ANLLLLMVPILIAMAFLMLTERKILGYIQPR
notes: as for B4
B27: SEQ ID NO 58 (peptide)
chain: HAVVARLLHIGAIMFQRLDFIEQLSAPPA
B28: SEQ ID NO 55 (peptide)
chain: EQASVKYVILDMYRALLTLMNTSTAT
B29: SEQ ID NO 38 (peptide)
chain: MAVIINELSQRDSCGPLKISLNNKILVYGNLFSSFTP
notes: as for B1
B30: SEQ ID NO 15 (peptide)
chain: SNELTRAVEELHKLLKEARE
notes: as for B4
B31: SEQ ID NO 19 (peptide)
chain: GLREESEEYMAAADEYNRLKQVKQPA
notes: as for B4
B32: L-plastin cluster polypeptide (peptide)
chain: SGLRKPTCGSSQR
notes: as for B10
B33: SEQ ID NO 18 (peptide)
chain: AGEDMEISVKELRTILNRIISKHKDLRT
notes: as for B4
B34: lysosomal pepstatin insensitive protease cluster polypeptide (peptide)
chain: ATWMKTLQGLLDRIQAFPSSPH
notes: as for B10
B35: SEQ ID NO 28 (peptide)
chain: TLYLKLTALAVTFLGLLTALDLNYPT
notes: as for B4
B36: SEQ ID NO 23 (peptide)
chain: GSSKDLAKHIQVVCDGMDLTPKIHDLKPQC
notes: as for B4
B37: SEQ ID NO 50 (peptide)
chain: GAMEREWAMFLRAASSRIRGGV
notes: as for B1
B38: SEQ ID NO 61 (peptide)
chain: VVDVPDFIVWLEEAVSDLHRAL
B39: SEQ ID NO 43 (peptide)
chain: RAPRFIKQILLDLKREIDFNVRLVEYFNPLS
notes: as for B1
B40: SEQ ID NO 45 (peptide)
chain: LALAYYSSRQYASALKHIAEIIERGIRQH
notes: as for B1
B41: SEQ ID NO 24 (peptide)
chain: GFLAAEQDIREEIRKVVQSLEQTAREVLTLLQG
notes: as for B4
B42: SEQ ID NO 42 (peptide)
chain: GVSEAEGTFPLSTFLLGIASRLRSVA
notes: as for B1
B43: SEQ ID NO 54 (peptide)
chain: GTRISDMLKLIADTWQRNCCPA
B44: SEQ ID NO 40 (peptide)
chain: SSQALRIHQWLHLFSDFTST
notes: as for B1
B45: SEQ ID NO 17 (peptide)
chain: LFTILLTLWTMRCSSTPSG
notes: as for B4
B46: SEQ ID NO 59 (peptide)
chain: GQGTLWGSGMEAWLATVLKALPWHPTYQLEP
B47: K-ras oncogene cluster polypeptide (peptide)
chain: MDTIKGFDLITNFQVVADALNISLLPNPLATA
notes: as for B10
B48: SEQ ID NO 34 (peptide)
chain: TSTLPHIRRTR
notes: as for B1

In the assay the target is T1, human Bcl-XL-GST fusion protein (human, UniProt P08515 1-218 = GST; Q07817 1-211).
T1 construct: Made in E. coli, immobilized on glutathione Sepharose beads; whole entry named; also called Bcl-XL-glutathione S-transferase (GST) fusion protein; GST-BCL-XL
T1 sequence (P08515 1-218, tags or fused parts left off): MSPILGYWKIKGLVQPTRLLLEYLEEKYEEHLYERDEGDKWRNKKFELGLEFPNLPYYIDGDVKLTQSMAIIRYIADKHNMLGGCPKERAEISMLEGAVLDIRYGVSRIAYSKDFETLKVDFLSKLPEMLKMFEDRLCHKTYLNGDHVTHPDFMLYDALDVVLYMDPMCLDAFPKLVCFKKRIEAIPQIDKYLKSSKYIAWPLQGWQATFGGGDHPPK
The assay can be described thus: mRNA display selection on immobilized Bcl-XL-GST. As for the experimental part:
Detection of a polypeptide binding to a Bcl-XL-glutathione S-transferase (GST) fusion protein was carried out as follows. Twenty microliters of glutathione Sepharose 4B slurry (AP Biotech) was aliquoted to a microcentrifuge tube and washed with PBS. The Bcl-XL-GST fusion protein (60 μg), prepared as describe above, was added and allowed to bind to the Sepharose beads for 1 hr at 4° C. The beads were then re-washed in selection buffer (50 mM Tris-HCL pH 7.5, 150 mM KCl, 0.05% Triton X-100, 0.5 mg/ml BSA, and 0.1 mg/ml salmon sperm DNA). The Bcl-XL-GST beads were resuspended in 100 μl of selection buffer (approximately 11.5 μM Bcl-XL) and ³⁵S-labeled mRNA display construct or free peptide was added (approximately 10-60 nM) and incubated on a rotator for 1 hr at 4° C. The reaction was then transferred to a microcentrifuge column (BioRad) and unbound mRNA display constructs or free peptides were removed by a 10 sec spin at 1,000 rpm. The Sepharose beads were then washed three times with 500 μl of selection buffer. The extent of binding between the Bcl-XL-GST fusion protein and the mRNA display constructs or free peptides was determined by scintillation counting each fraction, including the recovered beads.
A human Bcl-XL-GST fusion protein was immobilized on Sepharose beads as described above for the binding assay and incubated with the mRNA display library. For the first round of selection, the input was approximately 0.06 pmol of each of the four source labeled libraries from human tissues (kidney, liver, bone marrow, and brain), which were mixed prior to selection. For subsequent rounds of selection, the input of each of the four source labeled libraries ranged from 0.25 to 0.92 pmol in total. After washing the beads of any unbound nucleic acid-protein fusion library members, the cDNA strand of the bound fusions were recovered in three elutions with 100 μl of 0.1N KOH. Eluates were subsequently neutralized by the addition of 2 μl of 1N Tris-HCL pH 7 and 8 μl of 1N HCL. A small scale PCR optimization was performed with the eluate to determine the number of cycles required to produce a strong signal without overamplification (typically 18-28 cycles). The library was then regenerated by PCR using the remainder of the eluate.
As for B1, the binding result is listed as “binds”.

Regarding B2, the binding result is “binds”. To B3 belongs “binds”. In the case of B4, the binding result is on record as “binds”. To B5 belongs “binds”; to B6, “binds”; to B7, “binds”.

Turning to B8, the binding result is “binds”.

Take B9: the binding result is reported as “binds”.

As for B10, the binding result is listed as “binds”. To B11 belongs “binds”.

In the case of B12, the binding result was “binds”.

Turning to B13, the binding result was “binds”. On to B14, for which the binding result is reported as “binds”. As for B15, the binding result is given as “binds”. The same measure for B16: “binds”.

On to B17, for which the binding result is reported as “binds”. The same measure for B18: “binds”; for B19: “binds”. Take B20: the binding result is reported as “binds”.

For the molecule B21, the binding result is recorded as “binds”. To B22 belongs “binds”. Turning to B23, the binding result is recorded as “binds”. Turning to B24, the binding result is listed as “binds”.

Turning to B25, the binding result is recorded as “binds”. In the case of B26, the binding result was “binds”. To B27 belongs “binds”; to B28, “binds”; to B29, “binds”. To B30 belongs “binds”; to B31, “binds”. To B32 belongs “binds”; to B33, “binds”. As to B34, the binding result is reported as “binds”. Turning to B35, the binding result is recorded as “binds”. To B36 belongs “binds”; to B37, “binds”; to B38, “binds”.

In the case of B39, the binding result is on record as “binds”. The same measure for B40: “binds”. To B41 belongs “binds”. With B42, the binding result was “binds”.

For B43, the binding result is reported as “binds”. The same measure for B44: “binds”. Consider B45, for which the binding result is reported as “binds”. As to B46, the binding result is given as “binds”. Consider B47, for which the binding result was “binds”. Turning to B48, the binding result was “binds”.
